Here are results for two proteins from article PMC10839789, “More indications for redox-sensitive cysteine residues of the Arabidopsis 5-aminolevulinate dehydratase” (Frontiers in Plant Science, 2023).

Data set [1] deals with the molecule itself. Briefly: non-reducing SDS-PAGE with immunoblot (disulfide-linked oligomers); ALAD oxidised with diamide, dialysed, then 1 uM ALAD incubated 30 min with diamide, DTT (0.1-10 mM) or 0.1 mM DTT with TRX-f1/TRX-m1 (6.7 uM) or BSA (2 uM); free Cys blocked with NEM; non-reducing 10% SDS-PAGE; anti-His blot. For orientation: Immunoblotting shows a protein as a band on a membrane.

Data set [2] concerns the molecule itself. Briefly: non-reducing SDS-PAGE with immunoblot (disulfide-linked oligomers); recombinant ALAD preincubated 15 min at RT with 1 mM diamide (oxidising) or untreated; non-reducing 12% SDS-PAGE; anti-His blot.

B1: recombinant 6xHis-ALAD (Arabidopsis thaliana 5-aminolevulinic acid dehydratase 1, mature, wild type) (enzyme, UniProt Q9SFH9 53-430, looked up)
chain: ASESGNGHAKKLGMSDAECEAAVAAGNVPEAPPVPPKPAAPVGTPIIKPLNLSRRPRRNRASPVTRAAFQETDISPANFVYPLFIHEGEEDTPIGAMPGCYRLGWRHGLVQEVAKARAVGVNSIVLFPKVPEALKNSTGDEAYNDNGLVPRTIRLLKDKYPDLIIYTDVALDPYSSDGHDGIVREDGVIMNDETVHQLCKQAVSQARAGADVVSPSDMMDGRVGAIRSALDAEGFQNVSIMSYTAKYASSFYGPFREALDSNPRFGDKKTYQMNPANYREALIEAREDEAEGADILLVKPGLPYLDIIRLLRDKSPLPIAAYQVSGEYSMIKAGGVLKMIDEEKVMMESLMCLRRAGADIILTYFALQAATCLCGEKR
notes: ALAD1 (HEMB1, AT1G69740), Arabidopsis thaliana, cloned without the transit peptide (aa 1-52, ChloroP); mature ALAD1 is Ala53 to Arg430 of the 430-residue precursor; pET28a(+); also called ALAD1; ALAD(WT); source: E. coli Rosetta (DE3), purified (Ni-NTA agarose); not shown: His6, N-terminal, kept
B1: in data set [1], the binding result is “binds”.

B2: recombinant 6xHis-ALAD(C424S/C426S) (enzyme, Arabidopsis thaliana, UniProt Q9SFH9 53-430, looked up)
chain: ASESGNGHAKKLGMSDAECEAAVAAGNVPEAPPVPPKPAAPVGTPIIKPLNLSRRPRRNRASPVTRAAFQETDISPANFVYPLFIHEGEEDTPIGAMPGCYRLGWRHGLVQEVAKARAVGVNSIVLFPKVPEALKNSTGDEAYNDNGLVPRTIRLLKDKYPDLIIYTDVALDPYSSDGHDGIVREDGVIMNDETVHQLCKQAVSQARAGADVVSPSDMMDGRVGAIRSALDAEGFQNVSIMSYTAKYASSFYGPFREALDSNPRFGDKKTYQMNPANYREALIEAREDEAEGADILLVKPGLPYLDIIRLLRDKSPLPIAAYQVSGEYSMIKAGGVLKMIDEEKVMMESLMCLRRAGADIILTYFALQAATSLSGEKR
notes: ALAD1 (HEMB1, AT1G69740), Arabidopsis thaliana, mature form without the transit peptide (aa 1-52), Ala53 to Arg430; made by site-directed mutagenesis of pET28a(ALAD); also called ALAD(C424/C426); source: E. coli Rosetta (DE3), purified (Ni-NTA agarose); not shown: His6, N-terminal, kept
In the case of B2, the binding result in data set [2] was “binds”.
